# In publication PMC5838229:
# Target: Flag-DNAJC5 (secreted) (UniProt Q9H3Z4)
# Experiment: co-IP; conditioned medium of cells expressing Flag-DNAJC5 and HA-GFP1-10; Flag beads against control Sepharose beads; precipitated and unbound fractions analysed by immunoblotting
# Sequence of UniProt Q9H3Z4 (Q9H3Z4 whole entry): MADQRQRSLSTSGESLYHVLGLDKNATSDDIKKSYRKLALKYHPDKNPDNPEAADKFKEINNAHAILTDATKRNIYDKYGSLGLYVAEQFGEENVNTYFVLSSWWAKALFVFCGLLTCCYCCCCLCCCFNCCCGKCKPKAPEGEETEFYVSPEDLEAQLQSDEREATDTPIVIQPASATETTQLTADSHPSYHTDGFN
substance,measurement,value
HA-GFP1-10 (secreted) (domain or fragment),percent co-depleted with Flag-DNAJC5,> 60%
